The values below come from the supplement of paper PMC9170038.

This data set has as its system MS2 coat protein. As to the kind of experiment: apparent KD of MS2 coat protein; designed switch direction (-1 OFF switch, 1 ON switch): -1; higher = weaker reporter binding. The procedure, abridged: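 Apparent KD, taken as the median over clusters for each design, was obtained by curve-fitting normalised cluster fluorescence. Designed RNA switches had been transcribed on Illumina chips by stalled E. coli RNA polymerase and titrated with SNAP-549-labelled MS2 coat protein, doubling from 0.7 or 1.5 nM to 3 µM.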

The mark [1] stands for this setting: Eterna round: R95, input ligand: FMN 200 uM.
[2] abbreviates: Eterna round: R95, input ligand: microRNA oligo, concentration not stated.
The mark [3] stands for this setting: Eterna round: R95, input ligand: none.
Setting [4] is: input ligand: microRNA oligo, concentration not stated.

“CAUUACUGCAGGCUUUGGGACAUGAGGAUCACCCAUGUUCGUCUUAUUGAUCUAGGUACGCUGACGUACCUAGAUCU [JL-sv1-2.26 Brourd mod] (puzzle: Sensor v3, turn-off variant 1)”: the “apparent KD of MS2 coat protein” value runs as follows: under setting [1], 17.6 nM; under setting [2], 20.8 nM; under setting [3], 15.1 nM.

As for “CCGGAUAUGCAGGAUAUCGUAUCGGAUACGAUACGAGAAGGGUAUACAUGAGGAUCACCCAUGUGUCCUACCGG [Mat - Exclusion 6 - Eli Mod - D85] (puzzle: Exclusion 6)”, the “apparent KD of MS2 coat protein” value under setting [2] was 19.8 nM.

For “AAACCCUCCGUAAGGAUAUGCGCAGGUAAACCGCUGUAGAAGGUACAUGAGGAUCACCCAUGUUGGACCGUGGA [Eternabot (Original) Solution 35] (Eterna round: R97, puzzle: Brourd's mod of Exclusion 4)”, the “apparent KD of MS2 coat protein” value (input ligand: FMN 200 uM) turned out to be 36 nM and the “apparent KD of MS2 coat protein” value (input ligand: none) was found to be 29 nM.

For “CACCGUUAGCGAGGAUAUCGUACAUGAGGAUCACCCAUGUAAUAAAUGAGAAUUUCGGAUGUAUGCGAGAAGGCGCGAAUCGGC [Ostracism 34 - Jieux - Exclusion NG 2] (Eterna round: R96, puzzle: Exclusion NG 2)”, under setting [4], the “apparent KD of MS2 coat protein” value came to 36.6 nM.

In the case of “CGAUGCUCGAGUCGACAUGAGGAUCACCCAUGUAGAGUUAGUGAGGAUAUCGGAGACACAUAGUAUGAGAAGGCGCGAACCUGA [Ex NG3 #17] (Eterna round: R96, puzzle: Exclusion NG 3)”, the “apparent KD of MS2 coat protein” value runs as follows: (input ligand: FMN 200 uM) 21.8 nM; under setting [4], 16.3 nM; (input ligand: none) 18.8 nM.

Consider “ACAUGAGGAUCACCCAUGUGACCACGAUGGCUGAUGUAGAGACAGGAUAUGUGUGAAUAUCUAUCACAGAAGGGUCUUGACUGG [Deportation 54 - Jieux - Exclusion NG 3] (Eterna round: R96, puzzle: Exclusion NG 3)”, for which the “apparent KD of MS2 coat protein” value runs as follows: (input ligand: FMN 200 uM) 35.3 nM; under setting [4], 25.7 nM; (input ligand: none) 31.3 nM.

On to “AAAAAAUAAAAAACAAGCUACAUGAGGAUCACCCAUGUUACAAAAAUAAAAUAAAAAUAAAAUAAAAGUAAAAUGGG [Sensor V2: 75 Random] (Eterna round: R96, puzzle: Sensor v2, turn-off variant)”, for which the “apparent KD of MS2 coat protein” value reads like this: (input ligand: FMN 200 uM) 145 nM; under setting [4], 78.2 nM; (input ligand: none) 98.8 nM.

With “CCACCUCACGUCAGGAUAUCCAUCUCGAGUGAGGAGGAGAAGGGACAUGAGGAUCACCCAUGUAUAGAAAGAAA [Veaonce] (Eterna round: R97, puzzle: Brourd's mod of Exclusion 4)”, the “apparent KD of MS2 coat protein” value (input ligand: FMN 200 uM) is 35.1 nM and the “apparent KD of MS2 coat protein” value (input ligand: none) stood at 22.1 nM.

As to “AAAGUAGGAGGAUAUGGAUAUAGUAACAUGAGGAUCACCCAUGUUCUUGGUGUUCGUUACCCAGAAGGCCUGACAC [Eternabot (L1) Solution 64] (Eterna round: R97, puzzle: Exclusion 5)”, the “apparent KD of MS2 coat protein” value is, setting by setting: (input ligand: FMN 200 uM) 184 nM; (input ligand: none) 91 nM.

Turning to “CUCAUGUGAGGAUAUCAGUAGUGAUACGAUAGUAUUACUGCUGAGAAGGUACAUGAGGAUCACCCAUGUUCCUC [Exclusion 4 - Mod Omei Ex4 344 mod 4 v.3] (puzzle: Exclusion 4)”, the “apparent KD of MS2 coat protein” value under setting [2] was determined as 26.9 nM.

As to “CUUCAAUCACCAGAGCUCACACUUAUACCUGCUCUGGUGACAUGAGGAUCACCCAUGUUUUUUGCCCGUCUUAUCUU [Sensor v3, turn-off variant 2 (MOD of Leso v.3)] (puzzle: Sensor v3, turn-off variant 2)”, the “apparent KD of MS2 coat protein” value by setting is: under setting [1], 86.6 nM; under setting [2], 33 nM; under setting [3], 97.4 nM.

Turning to “AACCAUGAGCGAGGAUAUCACCCUACGGAGUGGUGAGAAGGCGCAACAUGAGGAUCACCCAUGUACAAAUGCGGGACCCUUUUC [Zaorredila] (Eterna round: R96, puzzle: Exclusion NG 1)”, the “apparent KD of MS2 coat protein” value under setting [4] stood at 21.6 nM.

Consider “ACCUCACAUGAGGAUCACCCAUGUCAGGAUAUAAUUUCAAACAUCAAUCGCGGCGCUGAGAGAAGGGUCAAAAC (Eterna round: R97, puzzle: Exclusion 1)”, for which the “apparent KD of MS2 coat protein” value is 15.7 nM (input ligand: FMN 200 uM) and 15.9 nM (input ligand: none).

In the case of “GCUUGUGGGCAAGGAUAUCCUACGUUGUUCUGGUUCGUGUCUGUCACAUGAGGAUCACCCAUGUGGGAGAAGGUGCAUUUGGUU [Design 60] (Eterna round: R96, puzzle: Exclusion NG 2)”, the “apparent KD of MS2 coat protein” value runs as follows: (input ligand: FMN 200 uM) 15.4 nM; under setting [4], 12.4 nM; (input ligand: none) 17.2 nM.

As to “AUAAUUAGUUCAGGAUAUCAGCACGUUUAGUGCUGAGAAGGGAACAUGAGGAUCACCCAUGUGAUCAAUAUUAUAAUUUUAAUU [ENG1/12-B2] (Eterna round: R96, puzzle: Exclusion NG 1)”, the “apparent KD of MS2 coat protein” value was 210 nM (input ligand: FMN 200 uM), 754 nM under setting [4] and 1100 nM (input ligand: none).

Take “CUGAGUUCAGGAUAUACAUGAGGAUCACCCAUGUAAAGUAGCUUGCGUACAGGCAGAUGUAGAAGGGAAUUCGG [Mod of JL 6 - Jieux - Exclusion 3] (Eterna round: R97, puzzle: Exclusion 3)”: the “apparent KD of MS2 coat protein” value runs as follows: (input ligand: FMN 200 uM) 30.2 nM; (input ligand: none) 19 nM.

With “AAAUUGUGAGGAUAUUCGAUGAACACGGAGACGUGUUUAUCGGAGAAGGCACAUGAGGAUCACCCAUGUUCCUU [Mat - Exclusion 4 - JL Mod - D24] (Eterna round: R97, puzzle: Exclusion 4)”, the “apparent KD of MS2 coat protein” value stood at 80.4 nM (input ligand: FMN 200 uM) and 16.3 nM (input ligand: none).

“UAGCAUUGCCAAAGGUAGUGCAUUACAUGAGGAUCACCCAUGUAGGAUAUGGUAGGCUUUGCUUACCAGAAGGACAUGAUAAUU [Mat - Exclusion NG 3 - Mod of JL - D15] (Eterna round: R96, puzzle: Exclusion NG 3)”: the “apparent KD of MS2 coat protein” value (input ligand: FMN 200 uM) worked out at 112 nM, the “apparent KD of MS2 coat protein” value under setting [4] came to 29.6 nM and the “apparent KD of MS2 coat protein” value (input ligand: none) stood at 43.1 nM.

As for “UUUUUCGAACAAGCUUCGUACAUGAGGAUCACCCAUGUUGGUAGAUUUGAGUAGGUUUGGAUGUAAGCUCGUCUUAU [JR_SV3TOV1_Sub082] (puzzle: Sensor v3, turn-off variant 1)”, the “apparent KD of MS2 coat protein” value under setting [1] was found to be 98.7 nM, the “apparent KD of MS2 coat protein” value under setting [2] came to 313 nM and the “apparent KD of MS2 coat protein” value under setting [3] turned out to be 129 nM.

Consider “GAGGGACAUGAGGAUCACCCAUGUGAGGAUAUGGAGAGGAGGAGGGAGGAGGAGGAGGCCAGAAGGCGCAAGAA [THE BEST I guess] (puzzle: Exclusion 1)”, for which the “apparent KD of MS2 coat protein” value under setting [1] amounted to 22.6 nM, the “apparent KD of MS2 coat protein” value under setting [2] was found to be 28 nM and the “apparent KD of MS2 coat protein” value under setting [3] came out at 46 nM.

As to “GAACUGAAGCAAAGCUUUAGUCGUACAUGAGGAUCACCCAUGUAGGAUAUGGUAGGCAAAGCUUACUAGAAGGACAGAGUGAUC [Mat - Exclusion NG 3 - Mod of JL - D70] (Eterna round: R96, puzzle: Exclusion NG 3)”, the “apparent KD of MS2 coat protein” value reads like this: (input ligand: FMN 200 uM) 338 nM; under setting [4], 336 nM; (input ligand: none) 336 nM.

For “GGAAUGUAAGGAUAUCCGAAAAGCGAGCGAAAGCGAGCAAAGGAGAAGGUACAUGAGGAUCACCCAUGUAAGGG [AK-MS2ROC-r4-exclusion4-12] (Eterna round: R97, puzzle: Exclusion 4)”, the “apparent KD of MS2 coat protein” value came to 58.9 nM (input ligand: FMN 200 uM) and 768 nM (input ligand: none).

As to “CUUCGUGUCAAGGAUAUACAGCAACUAUCCGGAGUAGAAGGUGGCACUUGAGGAUCACCCAAGUGCGUGGGUGU [Uszaqubi] (Eterna round: R97, puzzle: Exclusion 6)”, the “apparent KD of MS2 coat protein” value (input ligand: FMN 200 uM) turned out to be 33.5 nM and the “apparent KD of MS2 coat protein” value (input ligand: none) came out at 25.7 nM.

As to “AAGAACAGAGGAUAUCGCGGGCAGCACAUGAGGAUCACCCAUGUGAUGCUCCGCGGGCCGCGAGAAGGCUGAAAUG [Dizabe] (puzzle: Exclusion 5)”, the “apparent KD of MS2 coat protein” value is, setting by setting: under setting [1], 14.2 nM; under setting [2], 9.5 nM; under setting [3], 12.9 nM.

For “UACAUGAGGAUCACCCAUGUUUUGUCGUGUAUGGUAUUUAUCUAGGAUAUCGUGUUAUUUAACCACGAGAAGGAGAGUAUCAAU [MOD3 Solution 21 by JMF] (Eterna round: R96, puzzle: Exclusion NG 3)”, the “apparent KD of MS2 coat protein” value under setting [4] worked out at 21.5 nM.

“CCAGUGUGAGGAUAUACAUGGAUAGUUUUAUAUAGUAUGUUACAUGAGGAUCACCCAUGUAGAAGGUAUAUCGG [15.1, 13.8 kcal, A 31%] (Eterna round: R97, puzzle: Exclusion 2)”: the “apparent KD of MS2 coat protein” value was determined as 22.5 nM (input ligand: FMN 200 uM) and 28.7 nM (input ligand: none).

For the sequence “CUAGCGUAUGUAGGAUAUCGGACUGUUUCAGUCUGAGAAGGACAUGAGGAUCACCCAUGUAUAGCUACGUGAGUAGCUCGCUAG [JL ENG1 3.94] (Eterna round: R96, puzzle: Exclusion NG 1)”, under setting [4], the “apparent KD of MS2 coat protein” value is 17.2 nM.

Regarding “AACAGUCUAGAGGAUAUGCUGGAUUAAUAUCUGGCAGAAGGCUGGACAUGAGGAUCACCCAUGUAAAUACUACC [Omei Ex6 A1] (Eterna round: R97, puzzle: Exclusion 6)”, the “apparent KD of MS2 coat protein” value reads like this: (input ligand: FMN 200 uM) 137 nM; (input ligand: none) 44.3 nM.

With “GUUAAUUGUGACAUGGGUGACAUGAGGAUCACCCAUGUCACAAGCUUUUUGUUCGUCUUAUAAUUAACCCAUGUCAC [Stov1/13-B2] (Eterna round: R97, puzzle: Sensor, turn-off variant 1)”, the “apparent KD of MS2 coat protein” value by setting is: (input ligand: FMN 200 uM) 79.8 nM; (input ligand: none) 94.8 nM.

“CCGAAUAAGCAGGAUAUCGAAUCGGAAACGAUUCGAGAAGGGUUAACAUGAGGAUCACCCAUGUUCCUUAACGG [Mat - Exclusion 6 - Eli Mod - D78] (puzzle: Exclusion 6)”: under setting [2], the “apparent KD of MS2 coat protein” value turned out to be 19.2 nM.
